Source: paper PMC6548965, “Aptameric Probe Specifically Binding Protein Heterodimer Rather Than Monomers”

Biological target: IAP-PLAP alkaline phosphatase heterodimer (Homo sapiens (Human), UniProt P09923;P05187 20-503;23-506, GPI-anchored, glycosylated)
Test: flow; LoVo cells, binding buffer, 4 C
Conditions: copies: 1;1; label: FITC or AF647

Sequence of IAP-PLAP alkaline phosphatase heterodimer (P09923 20-503, chain 1 of 2): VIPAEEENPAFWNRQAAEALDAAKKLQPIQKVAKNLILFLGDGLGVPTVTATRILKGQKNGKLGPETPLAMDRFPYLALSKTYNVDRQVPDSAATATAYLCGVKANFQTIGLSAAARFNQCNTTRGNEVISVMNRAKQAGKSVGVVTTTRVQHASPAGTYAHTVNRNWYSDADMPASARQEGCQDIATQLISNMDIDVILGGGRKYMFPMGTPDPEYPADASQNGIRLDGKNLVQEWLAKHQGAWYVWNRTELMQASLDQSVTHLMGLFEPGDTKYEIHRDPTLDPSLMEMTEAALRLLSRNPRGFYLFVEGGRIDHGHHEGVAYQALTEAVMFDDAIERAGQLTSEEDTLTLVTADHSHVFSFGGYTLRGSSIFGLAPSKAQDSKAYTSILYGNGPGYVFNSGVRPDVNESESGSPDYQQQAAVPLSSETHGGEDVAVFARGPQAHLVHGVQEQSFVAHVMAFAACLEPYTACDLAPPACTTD
Sequence of IAP-PLAP alkaline phosphatase heterodimer (P05187 23-506, chain 2 of 2): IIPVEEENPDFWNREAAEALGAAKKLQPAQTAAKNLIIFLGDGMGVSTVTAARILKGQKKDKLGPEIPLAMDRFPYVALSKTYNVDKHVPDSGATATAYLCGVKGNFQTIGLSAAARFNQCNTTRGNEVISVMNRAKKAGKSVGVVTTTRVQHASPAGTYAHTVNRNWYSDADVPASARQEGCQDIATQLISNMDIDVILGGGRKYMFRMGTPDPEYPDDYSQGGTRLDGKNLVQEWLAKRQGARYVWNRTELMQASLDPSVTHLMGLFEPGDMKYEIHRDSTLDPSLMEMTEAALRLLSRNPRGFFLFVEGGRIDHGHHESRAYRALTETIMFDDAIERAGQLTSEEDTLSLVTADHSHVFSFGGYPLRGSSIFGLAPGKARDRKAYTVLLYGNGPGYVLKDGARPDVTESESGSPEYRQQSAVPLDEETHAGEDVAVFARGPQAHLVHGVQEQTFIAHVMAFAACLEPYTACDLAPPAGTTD

Binder | Kd [nM]
TAGGGGTCGGTGTGGGTGGTTATGATTGGC (ssDNA) [BG2c] | 9.3 ± 1.6
TAAAAAATAGGGGTCGGTGTGGGTGGTTATGATTGGCTTTTTTA (ssDNA) [BG4] | 11.5 ± 2.3
